Where a chain is given by its changes, count along the chain named. Values belong to the molecule of their own block, whether it stands above or below them.
Assays:
human CD19 = target: T1, human CD19 (Homo sapiens, UniProt P15391); test: Binding of TBMs to 300.19 cells overexpressing human CD19 (FACS); conditions: for binding to human CD19 compared with cyno CD19: 300.19 cells overexpressing human or cyno CD19
T1 construct: expressed in transfected cells; host or cells: mouse cell line 300.19
T1 sequence (P15391 20-556): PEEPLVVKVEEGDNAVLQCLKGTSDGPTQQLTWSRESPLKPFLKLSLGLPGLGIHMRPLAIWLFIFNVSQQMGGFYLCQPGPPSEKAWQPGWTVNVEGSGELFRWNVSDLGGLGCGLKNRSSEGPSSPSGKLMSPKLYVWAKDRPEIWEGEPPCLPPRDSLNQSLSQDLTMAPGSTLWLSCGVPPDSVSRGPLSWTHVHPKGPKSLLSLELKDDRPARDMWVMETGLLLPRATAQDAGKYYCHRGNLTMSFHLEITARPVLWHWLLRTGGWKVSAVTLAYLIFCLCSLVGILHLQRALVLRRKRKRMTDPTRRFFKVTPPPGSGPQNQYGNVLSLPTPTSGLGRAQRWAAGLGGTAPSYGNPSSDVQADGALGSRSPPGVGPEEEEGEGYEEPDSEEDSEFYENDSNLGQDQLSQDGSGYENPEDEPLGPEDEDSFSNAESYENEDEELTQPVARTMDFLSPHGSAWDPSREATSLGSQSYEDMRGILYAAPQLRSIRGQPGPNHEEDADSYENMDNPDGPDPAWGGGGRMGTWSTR
Procedure: (§1) The mouse cell line 300.19 was engineered to overexpress either human CD19 or cyno CD19. Cells were cultured in RPMI medium (Invitrogen #11875-093) with 10% FBS and 2-mercaptoethanol. Cells were harvested and resuspended in FACS buffer (PBS containing 1% FBS). 50,000 cells per well were plated in a V-bottom 96-well plate. Each cell line was incubated with serial dilutions of TBMs of Example 1A (i.e., R variants) for one hour on ice. Cells were centrifuged for 4 min at 400×g and washed with FACS buffer. This was repeated twice, and then the cells were incubated with Alexa-647 labeled anti-human Fc secondary antibody (Jackson Immuno #109-605-098) for 30 min on ice. The cells were washed twice, then resuspended in 100 μL of FACS buffer. FACS data was collected on a Beckman Coulter Cytoflex and analysis was performed using CytExpert v2.3.

[1] = Thermal stability of CD58 variants by differential scanning fluorimetry (DSF); type: physicochemical
Procedure: Disulfide stabilized variants were assessed for improved thermal stability using both differential scanning calorimetry (DSC) and differential scanning fluorimetry (DSF) using standard techniques. For DSF, 1-3 ug of each construct was add to 1× Sypro Orange (Thermo-Fisher) in 25 ul total volume in 96-well PCR plate. Using a Bio-Rad CFX96 RT-PCR system equipped with C1000 Thermal Cycler, the temperature was increased from 25° C. to 95° C. at 0.5° C./minute and the fluorescence monitored. The manufacturer-supplied software was used to determine Tm.

[2] = Thermal stability of CD58 variants by differential scanning calorimetry (DSC); type: physicochemical; conditions: HBS, 0.5 mg/mL
Procedure: For DSC, all samples were dialyzed into HEPES-buffered saline (HBS) and diluted to final concentration of 0.5 mg/mL. Tm and Tonset were determined using a MicroCal VP-Capillary DSC system (Malvern) by increasing temperature from 25° C. to 100° C. at 1° C./minute with a filtering period of 2 seconds and a mid-gain setting.

recombinant human CD2 = target: T2, recombinant human CD2 (Homo sapiens, UniProt P06729); test: Isothermal calorimetry (ITC) of CD58 variants binding to CD2; conditions: apparent KD, CD2 titrated into 10 μM CD58 variant, HBS
T2 construct: transiently produced and purified from HEK293 cells along with the CD2 extracellular domain; made in house; host or cells: HEK293 / HEK293F, transient
T2 sequence (P06729 with tags, fused parts or gaps): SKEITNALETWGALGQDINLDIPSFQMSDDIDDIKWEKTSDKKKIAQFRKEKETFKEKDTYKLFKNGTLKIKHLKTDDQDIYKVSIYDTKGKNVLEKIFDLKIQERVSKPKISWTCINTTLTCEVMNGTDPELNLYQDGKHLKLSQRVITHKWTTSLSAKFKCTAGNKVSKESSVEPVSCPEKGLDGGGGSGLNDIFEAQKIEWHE
Procedure: To ensure the binding affinity remained uncompromised by the additional of the stabilizing disulfide variance, isothermal calorimetry (ITC) was performed on the resulting recombinant CD58 proteins to determine their apparent KD and binding stoichiometry (n) to recombinant human CD2.
Briefly, recombinant human CD2 and recombinant human CD58 variants were dialyzed into HEPES-buffered saline (HBS). CD2 was diluted to final concentration of 100 μM, CD58 variants were diluted to 10 μM. CD2 was titrated into 10 μM of CD58 variants via multiple injections and ΔH (kcal/mole) determined using a MicroCal VP-ITC isothermal titration calorimeter (Malvern). Titrations of CD2 into HBS were used as a reference and KD and n determined from the resulting data.

cyno CD19 = test: Binding of TBMs to 300.19 cells overexpressing cyno CD19 (FACS); parameters: species or system cynomolgus
Procedure: as §1

CD3-Fc = test: CD3 affinity measurement of anti-CD3 mAbs (Biacore T200); type: binding; conditions: as measured by Biacore; stated to be for identification, not absolute affinity values
Source text: For each trispecific construct, three plasmids were synthesized. […] It should be understood that with respect to the mentioned Biacore affinity values and relative terms in the construct names, these are used merely for identification purposes and are not intended to represent absolute affinity values. A second plasmid encoding a light chain was synthesized as a fusion comprising (in the N-terminal to C-terminal direction) (i) an anti-CD19 VL domain and (ii) a constant human kappa sequence. The proteins encoded by the first and second plasmids form the first half antibody. A third plasmid encoding the second half antibody was synthesized as a fusion comprising (in the N-terminal to C-terminal direction) (i) the IgV domain of CD58 (CD58-6) and (ii) a constant hIgG1 domain containing a T366W mutation for a knob to facilitate heterodimerization as well as silencing mutations.
Briefly, anti-hFc IgG1 was immobilized on a CM5 chip. After capturing CD3-Fc (1 μg/ml in HBS-EP+ buffer, flow rate of 50 μl/min, with a 30 second injection time) kinetic data was acquired by subsequent injections of 1:2 dilution series of the different antibodies in HBS-EP+ buffer.
Data were evaluated using the Biacore T200 evaluation software version 1.0. The raw data were double referenced, i.e. the response of the measuring flow cell was corrected for the response of the reference flow cell, and in a second step the response of a blank injection was subtracted. Finally, the sensorgrams were fitted by applying 1:1 binding model to calculate kinetic rate constants and dissociation equilibrium constants. Rmax was set at local. Data were processed individually for each run.

B1: NEG218: CD19 antibody; VH SEQ ID NO:39, VL SEQ ID NO:52 (antibody, V domains shown)
VH: EVQLVQSGAEVKKPGESLKISCKASGYSFTNYWMNWVRQMPGKGLEWMGMIHPSDSEIRLNQKFQGQVTLSVDKSIGTAYMQWSSLKASDTAMYYCSRWYYLSSPMDYWGQGTTVTVSS
VL: EIVMTQSPATLSVSPGERATLSCRASQDVGTAVAWYQQKPGQAPRLLIYWASTRHTGIPARFSGSGSGTEFTLTISSLQSEDFAVYFCQQYSSYPYTFGQGTKLEIK
binding to human CD19 compared with cyno CD19 (human CD19): greater affinity for cyno CD19 than human CD19

Kd (recombinant human CD2): 570 nM
B2: CD58 Full ECD: recombinant human CD58 full extracellular domain (protein)
chain: SQQIYGVVYGNVTFHVPSNVPLKEVLWKKQKDKVAELENSEFRAFSSFKNRVYLDTVSGSLTIYNLTSSDEDEYEMESPNITDTMKFFLYVLESLPSPTLTCALTNGSIEVQCMIPEHYNSHRGLIMYSWDCPMEQCKRNSTSIYFKMENDLPQKIQCTLSNPLFNTTSSIILTTCIPSSGHSRHRGGGGSHHHHHHHH
Tm by Differential Scanning Fluorimetry (DSF) [1]: 59.5 °C
Tm by Differential Scanning Calorimetry (DSC) [2]: 65.0 °C
Tmonset by Differential Scanning Calorimetry (DSC) [2]: 48.8 °C

B3: IgV V54C_G88C: CD58 IgV domain with V54 and G88 replaced by cysteines (stabilizing disulfide) (protein)
chain: SQQIYGVVYGNVTFHVPSNVPLKECLWKKQKDKVAELENSEFRAFSSFKNRVYLDTVSCSLTIYNLTSSDEDEYEMESPNITDTMKFFLYVLESGGGGSHHHHHHHH
Tm by Differential Scanning Fluorimetry (DSF) [1]: 76.5 °C
Tm by Differential Scanning Calorimetry (DSC) [2]: 80.9 °C
Tmonset by Differential Scanning Calorimetry (DSC) [2]: 66.7 °C

B4: IgV V45C_M105C: CD58 IgV domain with V45 and M105 replaced by cysteines (stabilizing disulfide) (protein)
chain: B3 chain with V16C, C25V, C59G, M76C
Tm by Differential Scanning Fluorimetry (DSF) [1]: 48.5 °C
Tm by Differential Scanning Calorimetry (DSC) [2]: 66.8 °C
Tmonset by Differential Scanning Calorimetry (DSC) [2]: 43.9 °C

B5: CD58_IgV: recombinant human CD58 IgV domain (domain 1), no added disulfide (protein)
chain: B3 chain with C25V, C59G
Tm by Differential Scanning Fluorimetry (DSF) [1]: 48.5 °C
Tm by Differential Scanning Calorimetry (DSC) [2]: 60.9 °C
Tmonset by Differential Scanning Calorimetry (DSC) [2]: 46.3 °C

B6: IgV V45C_M114C: CD58 IgV domain with V45 and M114 replaced by cysteines (stabilizing disulfide) (protein)
chain: B3 chain with V16C, C25V, C59G, M85C
Tm by Differential Scanning Fluorimetry (DSF) [1]: 63.5 °C
Tm by Differential Scanning Calorimetry (DSC) [2]: 72.5 °C
Tmonset by Differential Scanning Calorimetry (DSC) [2]: 49.6 °C

binding to human CD19 compared with cyno CD19 (human CD19): bind equally to both human and cyno
B7: NEG258: CD19 antibody; VH SEQ ID NO:13, VL SEQ ID NO:26 (antibody, V domains shown)
VH: QVQLVQSGAEVKKPGASVKVSCKASGYTFTTYWIQWVRQAPGQRLEWMGAVYPGDADTRYTQKFQGRVTLTADRSASTAYMELSSLRSEDTAVYYCGRDAGLEYYALDYWGQGTLVTVSS
VL: EIVMTQSPATLSVSPGERATLSCRASQDVGTAVAWYQQKPGQAPRLLIYWASTRHTGIPARFSGSGSGTEFTLTISSLQSEDFAVYFCQQYANFPLYTFGQGTKLEIK
affinity for human CD19, NEG258 vs NEG218 (human CD19): greater affinity for both human CD19 and cyno CD19
affinity for cyno CD19, NEG258 vs NEG218 (cyno CD19): greater affinity for both human CD19 and cyno CD19

Kd (CD3-Fc): 16 nM
B8: CD3hi: anti-CD3 antibody having high affinity to CD3 (in relative terms) (antibody, V domains shown)
VH: EVQLVESGGGLVQPGGSLKLSCAASGFTFNTYAMNWVRQASGKGLEWVGRIRSKYNNYATYYADSVKDRFTISRDDSKSTLYLQMNSLKTEDTAVYYCVRHGNFGNSYVSWFAYWGQGTLVTVSS
VL: QAVVTQEPSLTVSPGGTVTLTCRSSTGAVTTSNYANWVQQKPGQAPRGLIGGTNKRAPWTPARFSGSLLGDKAALTLSGAQPEDEAEYFCALWYSNLWVFGGGTKLTVL

Kd (CD3-Fc): 48 nM
B9: CD3lo: anti-CD3 antibody having low affinity to CD3 (in relative terms) (antibody, V domains shown)
VH: B8 VH with L81A
VL: B8 VL

Kd (CD3-Fc): 30 nM
B10: CD3med: anti-CD3 antibody having medium affinity to CD3 (in relative terms) (antibody, V domains shown)
VH: B8 VH with S79N, L81A, Y114H
VL: B8 VL with R23G, T31S, D71G, F89Y

— patent US12221481B2, “CD19 binding molecules and uses thereof” (Novartis AG, priority 2019, dated 2025)
